± gives the standard error.
assay: background-corrected fluorescence of 3'-dye-labeled ssDNA relative to brightest sequence (3'-GCGCG) (fraction); higher = brighter dye fluorescence (less quenching); conditions: dye: Cy5 (3' terminal)
Experimental: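 Single-stranded DNA is synthesized in situ on glass microarrays by 5'->3' photolithographic synthesis, with a Cy3 or Cy5 phosphoramidite coupled at the 3' end next to all 1024 permuted pentamers P1-P5. The construct is 5'-T5-(ACGT minus P5..P1 trinucleotides)-T15-P5P4P3P2P1-dye-3'; the dye is a 3' terminal modification, not part of the sequence. Arrays were scanned at 532 nm (Cy3) or 635 nm (Cy5), background from unlabeled oligos was subtracted, and values are averaged over 10 replicate features per array and at least 3 independent syntheses.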

Compared with “TTTTTGCATCAGCAGCATGATTTTTTTTTTTTTTTTGTTC [CTTGT]”, “TTTTTGCATCAGCAGCATGCTTTTTTTTTTTTTTTTGTTA [ATTGT]” is higher in background-corrected fluorescence: 0.31 ± 0.025 for the first, 0.415 ± 0.023 for the second.

“TTTTTGCATCAGCATCAGCATTTTTTTTTTTTTTTTGTGT” and “TTTTTGCATCAGCATCATCATTTTTTTTTTTTTTTTGTGG [GGTGT]” are within error of each other in background-corrected fluorescence: 0.497 ± 0.026 for the first, 0.511 ± 0.029 for the second.

Compared with “TTTTTGCATCAGCATCATGATTTTTTTTTTTTTTTTGTGC [CGTGT]”, “TTTTTGCATCAGCATCATGCTTTTTTTTTTTTTTTTGTGA [AGTGT]” is higher in background-corrected fluorescence: 0.402 ± 0.027 for the first, 0.564 ± 0.039 for the second.

“TTTTTGCATCAGCATGAGCATTTTTTTTTTTTTTTTGTCT [TCTGT]” and “TTTTTGCATCAGCATGATCATTTTTTTTTTTTTTTTGTCG [GCTGT]” are within error of each other in background-corrected fluorescence: 0.367 ± 0.028 for the first, 0.392 ± 0.023 for the second.

Going from “TTTTTGCATCAGCATGATGATTTTTTTTTTTTTTTTGTCC [CCTGT]” to “TTTTTGCATCAGCATGATGCTTTTTTTTTTTTTTTTGTCA [ACTGT]”, the background-corrected fluorescence rises from 0.289 ± 0.018 to 0.439 ± 0.08.

“TTTTTGCATCAGCATGCGCATTTTTTTTTTTTTTTTGTAT [TATGT]” and “TTTTTGCATCAGCATGCTCATTTTTTTTTTTTTTTTGTAG [GATGT]” are within error of each other in background-corrected fluorescence: 0.418 ± 0.031 for the first, 0.443 ± 0.064 for the second.

Compared with “TTTTTGCATCAGCATGCTGATTTTTTTTTTTTTTTTGTAC [CATGT]”, “TTTTTGCATCAGCATGCTGCTTTTTTTTTTTTTTTTGTAA [AATGT]” is higher in background-corrected fluorescence: 0.344 ± 0.022 for the first, 0.478 ± 0.03 for the second.

“TTTTTGCATCATCAGCAGCATTTTTTTTTTTTTTTTGGTT” and “TTTTTGCATCATCAGCATCATTTTTTTTTTTTTTTTGGTG [GTGGT]” are within error of each other in background-corrected fluorescence: 0.477 ± 0.037 for the first, 0.456 ± 0.022 for the second.

Compared with “TTTTTGCATCATCAGCATGATTTTTTTTTTTTTTTTGGTC [CTGGT]”, “TTTTTGCATCATCAGCATGCTTTTTTTTTTTTTTTTGGTA [ATGGT]” is higher in background-corrected fluorescence: 0.387 ± 0.04 for the first, 0.492 ± 0.033 for the second.

“TTTTTGCATCATCATCAGCATTTTTTTTTTTTTTTTGGGT” and “TTTTTGCATCATCATCATCATTTTTTTTTTTTTTTTGGGG [GGGGT]” are within error of each other in background-corrected fluorescence: 0.586 ± 0.044 for the first, 0.613 ± 0.042 for the second.

Compared with “TTTTTGCATCATCATCATGATTTTTTTTTTTTTTTTGGGC [CGGGT]”, “TTTTTGCATCATCATCATGCTTTTTTTTTTTTTTTTGGGA [AGGGT]” is higher in background-corrected fluorescence: 0.516 ± 0.027 for the first, 0.725 ± 0.054 for the second.

“TTTTTGCATCATCATGAGCATTTTTTTTTTTTTTTTGGCT [TCGGT]” and “TTTTTGCATCATCATGATCATTTTTTTTTTTTTTTTGGCG [GCGGT]” are within error of each other in background-corrected fluorescence: 0.442 ± 0.053 for the first, 0.516 ± 0.065 for the second.

Going from “TTTTTGCATCATCATGATGATTTTTTTTTTTTTTTTGGCC [CCGGT]” to “TTTTTGCATCATCATGATGCTTTTTTTTTTTTTTTTGGCA [ACGGT]”, the background-corrected fluorescence rises from 0.369 ± 0.03 to 0.472 ± 0.032.

“TTTTTGCATCATCATGCGCATTTTTTTTTTTTTTTTGGAT [TAGGT]” and “TTTTTGCATCATCATGCTCATTTTTTTTTTTTTTTTGGAG [GAGGT]” are within error of each other in background-corrected fluorescence: 0.458 ± 0.036 for the first, 0.494 ± 0.035 for the second.

Compared with “TTTTTGCATCATCATGCTGATTTTTTTTTTTTTTTTGGAC [CAGGT]”, “TTTTTGCATCATCATGCTGCTTTTTTTTTTTTTTTTGGAA [AAGGT]” is higher in background-corrected fluorescence: 0.404 ± 0.046 for the first, 0.557 ± 0.029 for the second.

“TTTTTGCATCATGAGCAGCATTTTTTTTTTTTTTTTGCTT [TTCGT]” and “TTTTTGCATCATGAGCATCATTTTTTTTTTTTTTTTGCTG [GTCGT]” are within error of each other in background-corrected fluorescence: 0.384 ± 0.038 for the first, 0.358 ± 0.022 for the second.

First: TTTTTGCATCATGAGCATGATTTTTTTTTTTTTTTTGCTC [CTCGT]
Second: TTTTTGCATCATGAGCATGCTTTTTTTTTTTTTTTTGCTA [ATCGT]
The background-corrected fluorescence of the first is lower: 0.296 ± 0.036 for the first, 0.399 ± 0.041 for the second.

“TTTTTGCATCATGATCAGCATTTTTTTTTTTTTTTTGCGT” and “TTTTTGCATCATGATCATCATTTTTTTTTTTTTTTTGCGG [GGCGT]” are within error of each other in background-corrected fluorescence: 0.516 ± 0.061 for the first, 0.543 ± 0.032 for the second.

First: TTTTTGCATCATGATCATGATTTTTTTTTTTTTTTTGCGC [CGCGT]
Second: TTTTTGCATCATGATCATGCTTTTTTTTTTTTTTTTGCGA [AGCGT]
The background-corrected fluorescence of the first is lower: 0.48 ± 0.034 for the first, 0.616 ± 0.044 for the second.

“TTTTTGCATCATGATGAGCATTTTTTTTTTTTTTTTGCCT [TCCGT]” and “TTTTTGCATCATGATGATCATTTTTTTTTTTTTTTTGCCG [GCCGT]” are within error of each other in background-corrected fluorescence: 0.356 ± 0.021 for the first, 0.389 ± 0.029 for the second.

Going from “TTTTTGCATCATGATGATGATTTTTTTTTTTTTTTTGCCC [CCCGT]” to “TTTTTGCATCATGATGATGCTTTTTTTTTTTTTTTTGCCA [ACCGT]”, the background-corrected fluorescence rises from 0.272 ± 0.016 to 0.403 ± 0.029.

“TTTTTGCATCATGATGCGCATTTTTTTTTTTTTTTTGCAT [TACGT]” and “TTTTTGCATCATGATGCTCATTTTTTTTTTTTTTTTGCAG [GACGT]” are within error of each other in background-corrected fluorescence: 0.394 ± 0.02 for the first, 0.425 ± 0.029 for the second.

Going from “TTTTTGCATCATGATGCTGATTTTTTTTTTTTTTTTGCAC [CACGT]” to “TTTTTGCATCATGATGCTGCTTTTTTTTTTTTTTTTGCAA [AACGT]”, the background-corrected fluorescence rises from 0.321 ± 0.028 to 0.463 ± 0.026.

“TTTTTGCATCATGCGCAGCATTTTTTTTTTTTTTTTGATT [TTAGT]” and “TTTTTGCATCATGCGCATCATTTTTTTTTTTTTTTTGATG [GTAGT]” are within error of each other in background-corrected fluorescence: 0.419 ± 0.05 for the first, 0.409 ± 0.037 for the second.

Going from “TTTTTGCATCATGCGCATGATTTTTTTTTTTTTTTTGATC [CTAGT]” to “TTTTTGCATCATGCGCATGCTTTTTTTTTTTTTTTTGATA [ATAGT]”, the background-corrected fluorescence rises from 0.335 ± 0.028 to 0.481 ± 0.032.

“TTTTTGCATCATGCTCAGCATTTTTTTTTTTTTTTTGAGT” and “TTTTTGCATCATGCTCATCATTTTTTTTTTTTTTTTGAGG [GGAGT]” are within error of each other in background-corrected fluorescence: 0.539 ± 0.029 for the first, 0.529 ± 0.043 for the second.

Going from “TTTTTGCATCATGCTCATGATTTTTTTTTTTTTTTTGAGC [CGAGT]” to “TTTTTGCATCATGCTCATGCTTTTTTTTTTTTTTTTGAGA [AGAGT]”, the background-corrected fluorescence rises from 0.422 ± 0.08 to 0.593 ± 0.044.

“TTTTTGCATCATGCTGAGCATTTTTTTTTTTTTTTTGACT [TCAGT]” and “TTTTTGCATCATGCTGATCATTTTTTTTTTTTTTTTGACG [GCAGT]” are within error of each other in background-corrected fluorescence: 0.357 ± 0.022 for the first, 0.433 ± 0.063 for the second.

First: TTTTTGCATCATGCTGATGATTTTTTTTTTTTTTTTGACC [CCAGT]
Second: TTTTTGCATCATGCTGATGCTTTTTTTTTTTTTTTTGACA [ACAGT]
The background-corrected fluorescence of the first is lower: 0.3 ± 0.02 for the first, 0.411 ± 0.026 for the second.

“TTTTTGCATCATGCTGCGCATTTTTTTTTTTTTTTTGAAT [TAAGT]” and “TTTTTGCATCATGCTGCTCATTTTTTTTTTTTTTTTGAAG [GAAGT]” are within error of each other in background-corrected fluorescence: 0.436 ± 0.035 for the first, 0.44 ± 0.024 for the second.

First: TTTTTGCATCATGCTGCTGATTTTTTTTTTTTTTTTGAAC [CAAGT]
Second: TTTTTGCATCATGCTGCTGCTTTTTTTTTTTTTTTTGAAA [AAAGT]
The background-corrected fluorescence of the first is lower: 0.345 ± 0.021 for the first, 0.522 ± 0.041 for the second.

“TTTTTGCATGAGCAGCAGCATTTTTTTTTTTTTTTTCTTT” and “TTTTTGCATGAGCAGCATCATTTTTTTTTTTTTTTTCTTG [GTTCT]” are within error of each other in background-corrected fluorescence: 0.353 ± 0.032 for the first, 0.371 ± 0.032 for the second.

Compared with “TTTTTGCATGAGCAGCATGATTTTTTTTTTTTTTTTCTTC [CTTCT]”, “TTTTTGCATGAGCAGCATGCTTTTTTTTTTTTTTTTCTTA [ATTCT]” is higher in background-corrected fluorescence: 0.282 ± 0.018 for the first, 0.373 ± 0.022 for the second.

Reference: the supplement of paper PMC9428881
